{
  "source": "patent US20140370026A1",
  "molecular_target": "CD46 (UniProt P15529)",
  "sequence (P15529 35-392 limits assumed)": "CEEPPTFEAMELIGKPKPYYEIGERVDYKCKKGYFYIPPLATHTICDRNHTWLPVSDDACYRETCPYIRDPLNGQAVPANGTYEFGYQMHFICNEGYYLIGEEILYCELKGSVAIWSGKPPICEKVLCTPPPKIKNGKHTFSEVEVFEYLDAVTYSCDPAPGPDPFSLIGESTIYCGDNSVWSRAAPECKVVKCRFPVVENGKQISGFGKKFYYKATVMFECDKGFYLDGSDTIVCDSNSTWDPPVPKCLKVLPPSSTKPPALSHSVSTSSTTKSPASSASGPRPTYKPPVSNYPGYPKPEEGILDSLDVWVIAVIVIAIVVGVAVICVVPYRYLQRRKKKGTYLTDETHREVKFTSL",
  "test": "cell-based or functional assay",
  "data": [
    {"substance": "anti-CD46 antibody J4.48 (Chemicon International)", "values": [
      {"measurement": "inhibition of human CMV (BADrUL131) infectivity of ARPE-19 epithelial cells (IE1 immunofluorescence)", "value": 77, "unit": "%"}
    ]}
  ]
}
